Experimental data: IntAct's records for PubMed 20643958

B1: DNA primase large subunit (Homo sapiens), P49643-1 (parent)
chain: MEFSGRKWRKLRLAGDQRNASYPHCLQFYLQPPSENISLIEFENLAIDRVKLLKSVENLGVSYVKGTEQYQSKLESELRKLKFSYRENLEDEYEPRRRDHISHFILRLAYCQSEELRRWFIQQEMDLLRFRFSILPKDKIQDFLKDSQLQFEAISDEEKTLREQEIVASSPSLSGLKLGFESIYKIPFADALDLFRGRKVYLEDGFAYVPLKDIVAIILNEFRAKLSKALALTARSLPAVQSDERLQPLLNHLSHSYTGQDYSTQGNVGKISLDQIDLLSTKSFPPCMRQLHKALRENHHLRHGGRMQYGLFLKGIGLTLEQALQFWKQEFIKGKMDPDKFDKGYSYNIRHSFGKEGKRTDYTPFSCLKIILSNPPSQGDYHGCPFRHSDPELLKQKLQSYKISPGGISQILDLVKGTHYQVACQKYFEMIHNVDDCGFSLNHPNQFFCESQRILNGGKDIKKEPIQPETPQPKPSVQKTKDASSALASLNSSLEMDMEGLEDYFSEDS

Variants of: B1
Conditions: with rfa2_human RPA2, P15927
Chain of rfa2_human RPA2, P15927 (P15927 whole entry): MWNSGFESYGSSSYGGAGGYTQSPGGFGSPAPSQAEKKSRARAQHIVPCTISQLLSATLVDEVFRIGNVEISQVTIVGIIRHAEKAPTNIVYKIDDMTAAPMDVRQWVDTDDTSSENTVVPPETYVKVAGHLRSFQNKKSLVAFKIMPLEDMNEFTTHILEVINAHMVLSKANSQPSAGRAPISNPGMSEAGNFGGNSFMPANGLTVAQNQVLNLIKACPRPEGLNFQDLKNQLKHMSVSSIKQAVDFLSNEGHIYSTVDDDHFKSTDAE

Variant	effect of a mutation on the interaction
H299D	decreasing interaction
R296E	decreasing interaction
R302E	decreasing interaction

Variants of: B1
Conditions: with rfa2_human RPA2, P15927
Remark: another data set of the same source

Variant	effect of a mutation on the interaction
R302E	disrupting interaction
